Measurements taken from the DeepSol protein solubility set.

Test: soluble on expression in E. coli; label from the status in PepcDB or PDB records

| Sequence | soluble on expression in E. coli |
| --- | --- |
| MEDKPTILIMGGSLGLGNIEDIVEMVCHICDESYQIIVVTGKNKTLKKSLEERNFGRKVVVFGFISFIDKLMAISDILITKPGGLTCAEALSCKLPMILISPIPGQEERNTFYLINNGAAAYVKNIESFDIVFNQIINNPQRLEHMKLACSFLAKPLEHHHHHH | not soluble |
| MSLKAANRYVAGEKRSDGLAIARKLQAKGYGISLENIGENTKLLAQCREAKMEFDQLIEDVGAIAPGQTVSFDLSHIGLSYQFDTAYGHLIELAEKANEHEVTLMISMEESTKTDQILAVYRQAAELYSNIGITLQAHLFRTPDDLRKLVQLPGKIRIVKGAYQEPSHLAMERSDYLNNRYLELVDHLVSTNHPVSVATHDQKLLEEMERRQFLQSTDVEIEMLYGIQPSQLKLFKEKGYQTRVYLTYGHEWFLYLCHRLAEYPENIYTALIDIINPSLPKVDDMYEGHHHHHH | not soluble |
| MVHYKLSYFPIRFAGEIPRQILAYAGQKFEDHRIPQADWPALKSTMPFGTLPVLYQDGKPLGQSHAISRFLARQFGINGRCPWEEAQVNAIADQFKDYLNDIRSYNLVKMGFAQGDADALYKDTFLPNFKKNYQFFTNFLKASGSGFLIGDSVTWVDLLIAQHTSDLLSDSGSVFAASQSLLDEFPELKAHQKKIHSIPNIKKWVETRPVTPF | not soluble |
| MGHHHHHHSHMSAFASSDRAEKSGIALEAQQKIYEKYDKNLAGEILQWVQNVTGQSFDTQGDADNLVKVFQDGSLLCTLANSLKPGSVKKVNTSAMAFKKMENISFFLKFAEEYVQKSELFQTVDLYEGQDPNAVLICLASLARKSEKNFGRSGLGPKEAQGDRREWTDEQLKAGHNVIGLQMGSNKGATASGLNMGNTRHM | soluble |
| MAETSNASAEPELIYFEVTSNEERFVHMVFQMASNTTNQFLIFVKDDETCFRAQRALYSSGEMTQCFLKNMNKDAFKKRKQELKNGTAKVWIADRSVIGKLVDCFSKELTVFLYDGISNDFPKQAVGKCHSVISLKQSRHTAVNTSDGLFEQVFHICQLYNATFTSPIKDWMASSKNGDLPENADTMKLVIARPSELLNSASTLRSFNDIVAKDPRILNLMEAFKVIENKARIDKDDNSRGMLYLCVKMRSELDGQYVTKNKADQFYRVEFNTLKNMKNKSEFLRKMCPS | not soluble |
| MSLKTFTLPASVLFCFLLLIQGLGAAPPGRPDVFPPPLSSEHNGQVAEDAVSRPKDDGVPEVRAARNPEPQDQGELFQGVDPRALASVLLQALDRPASPPSVPGGSQQGTPEEAAEALMTESVRSQTHSLPAPEIQAPAVAPPRPQTQDRDPEEDDRSEEMEALASLLQELRDFSPSNAKRQQETAAAETETRTHTLTRVNLESPGPERVWRASWGEFQARVPERAPLPPPVPSQFQARMSESAPLPETHQFGEGVSSPKTHLGETLTPLSKAYQSLGGPFPKVRRLEGSFLGGSEAGERLLQQGLAQVEAGRRQAEATRQAAAQEERLADLASDLLLQYLLQGGARQRDLGGRELQETQQERENEREEEAEQERRGGGEDDVGEEDEEAAEAEAEAEEAERARQNALLFAEEEDGEAGAEDKRSQEEAPGHRRKDAEGAEEGGEEDDDDEEMDPQTIDSLIELSTKLHLPADDVVSIIEEVEEKRKRKKNAPPEPVPPPRAAPAPTHVRSPQPPPPAPARDELPDWNEVLPPWDREEDEVFPPGPYHPFPNYIRPRTLQPPASSRRRHFHHALPPARHHPDLEAQARRAQEEADAEERRLQEQEEMENYIEHVLLHRPEGHHHHHH | soluble |
| MIPPSSPREDGVDGLPKEAVGAEQPPSPASTSSQESKLQKLKRSLSFKTKSLRSKSADNFFQRTNSEDMKLQAHMVAEISPSSSPLPAPGSLTSTPARAGLHPGGKAHAFHEYIFKKPTFCDVCNHMIVGTNAKHGLRCKACKMSIHHKCTDGLAPQRCMGKLPKGFRRYYSSPLLIHEQFGCIKEVMPIACGNKVDPVYETLRFGTSLAQRTKKGSSGSGSDSPHRTSTSDLVEVPEEANGPGGGYDLRKRSNSVFTYPENGTDDFRDPAKNINHQGSLSKDPLQMNTYVALYKFVPQENEDLEMRPGDIITLLEDSNEDWWKGKIQDRIGFFPANFVQRLQQNEKIFRCVRTFIGCKEQGQITLKENQICVSSEEEQDGFIRVLSGKKKGLIPLDVLENI | soluble |
| MGSDKIHHHHHHMSDIKFNSMTHFEAVARLGGVAKAAQELQVTPSAVSQQLRLLEHQLGVRLFQREKRHLSLTIDGERLFQTTTQAFESIREVRNAIVRQRESFQLSLRVSPSFGEKWLAPRLAEFSKDYPSWNLRVDATPNFSDFETEVIDLDLRYGDGGWAGLYSDCVVNDLILPMCSPSYLAELRGLSVDPREQLGHARLIDSVKAYFRWDYWLPRNGIQGARMTYPYRFDRSSMSVQLAKDGAGVVLESTTIAFEDLVSGSLVPVSTEFDVIEFPGYWLVCPSRHMNRRAVRLFSDWVSRVGQRDTDRARQFLSESGLHISFERRPHFGTPDDRAATML | not soluble |
| MAHHHHHHMNSTTTISADPDGSSLCAASRISTPGTMSVLVPYKRRGQKSSMARGGASPQRRSPQPPYAGKSISTSASTLSSSVQPHGAGAASRGDQSRRGDAAPDGTLNAYSSHPAAPLDRPRDEEFDAVEQRARMALESIATRDEDLEPSMGDHIGVLQSYRTACEARAMYREAYLVQQVLRNLRLEEESRHVRGITEQQMEERRILEEAHRQEFREFHHSWNARIDAFEEEQLEAELALLERQNEELIRFQEEMRNFQPRLLRYSRSLLESRLKQQTLAKQRDYVGAQAQKAHAEAIEVEDIERFEAARMSLFERREYAARHRHQQELYALRTKVESRRLYLERYRKQELDVLLQRYINARRSMESQQNIVRNKTGTLLLKHACNMKTDSSGTAVLVESAGSGAFGTMVQRRQAYELRALQGSPDGASASVRDGSAM | not soluble |
| MNTIAFKEIFLPIRPSIRAVCHAFLRDDEEAEDATQEVYLRLWEARMRLDGLDNPRAYAIRIARNYCLNLIRKASNSPYPTSLEAAEVQEVSETHGGEADLLLSEQIGRLRQWLRGVSELYRTVFAMSHFRRLSNGEIAERLGLTEGNVRVILCRLRREAKEVMKDDA | not soluble |
| MGSDKIHHHHHHMVQREKNVVNEQEIELIIGNSNSNFSGVTSTMLQVLSHEQSLINLRVMGKHHLPDESLSISFWQVANLSTKPLPKGKFRIFHARRVDEMIQALLLKYVFRVKLKIVFSSAAQRYRSGFTLWLTDRMDAVLAMCKASASYLHRKPDAIIYHGVKTDIYLPATDKSKAWQSLGLLPENSAKGKKGIAILGRVRKQKGVHLFVESCIDILKDRPDYTAVIVGSISSSNESFVNELQSKIDQAGLTERIVFAGEQNFADIPKIFSSLSLVVALSENEGFGLTILEAMSSGAAVLASEAGAWPEVVRQGVDGYVVPINDLDAVTEKMSLLLADEEKLMQMGRDGRERVLEHYSVEREAKELVTFFRSLM | not soluble |
| MSLLIKNGKIFTCEEGKIYEKGDILIKDGKISKIGEDLSQYIGEEEVIDAKGLLIFPGFIEAHCHLGLHEEGNNGAGNGTNEASEPITPQMRAIDGINPFDGGFQSAREAGVTTAVIGPGSANVIGGQFAAVKTSGICIDDMIIKESVAIKVAFGENPKRVYSGKNKMPNTRMAIAALLRETLTEAVNYKNRKIDAEIEDKDFSKNLKYEALLPLINREIPMKAHAHRADDILTAIRIAKEFNLKLTLDHCTEGHLISDYIKRENLDAIVGPTLSFNGKAETLNKTFKTPKALIDKGIKVAITTDHPVVTIDNLPLCAAMAMKEGITFNEVLEAITINPAEIIGIDERVGSLKEGKDGDLVILNGSPFEIATKTIYTIINGEVVYKDEGHHHHHH | soluble |
| NIDEHSLFVNVGERTNVTGSKAFARLILNGGYAEGLVIARSQVENGAQIIDINMDEAMLDSQKAMVTFLNLLAAEPDISRLPIMLDSSKWSVIEAGLKCVQGKAVINSISLKEGEAEFLHHARLARRYGAAVIVMAFDETGQADTLQRKVEICTRCYHTLIEQADFPPEDIIFDPNIFAIATGIEEHSNYAVDFIEATHVIRQTLPYAKVSGGVSNVSFSFRGNEPIREAIHTAFLYHAVKAGMTMGIVNAGQLGVYSDIPPDLLEHVEDVLLNRRPDATERLVEFAEHFKGQKKEQIE | not soluble |
